Reference: patent US11905525B2, “Reduction of elimination of immune responses to non-intravenous, e.g., subcutaneously administered therapeutic proteins” (ModernaTX, Inc., priority 2017, dated 2024)

Tested on: accelerated blood clearance (ABC)
Assay: Accelerated blood clearance (ABC) upon subsequent administration of LNP with a B cell targeting agent
Assay type: in vivo
Details: combination with the LNP

“Rituximab: monoclonal antibody against the protein CD20” was tested, and the “ABC upon subsequent administration of LNP” value was “significantly reduced ABC”.
